The record followed here is PMC11575642 (Chemical Science, 2024).

The target in this experiment is Glutathione peroxidase 4 (GPX4), endogenous in OS-RC-2 cells (Homo sapiens, OS-RC-2 cells, UniProt P36969). Put plainly: pull-down.

B1: 4C-R10 (nanobody 4C fused at its C-terminus through an SGSGSG linker to the arginine-rich R10 cell-penetrating peptide) (VHH)
VHH: EVQLEESGGGSVQAGGSLRLSCAAPGDTSSRYYMGWFRQAPGKEREGVAGFSTGLGRTTYADSVKGRFTISQDNAKNTIYLQMNSLKVEDTAMYYCATGRAWAAGSPMYGPFDSRRYNYWGQGTQVTVSS
In the case of B1, the binding result is “binds”.
